The labels stand for the following.
T1: CD123 (Homo sapiens (Human), UniProt P26951 19-305, limits assumed)
T1 construct: The CD123 construct used in the ELISA is not described; also called CD123-Signal
T1 sequence: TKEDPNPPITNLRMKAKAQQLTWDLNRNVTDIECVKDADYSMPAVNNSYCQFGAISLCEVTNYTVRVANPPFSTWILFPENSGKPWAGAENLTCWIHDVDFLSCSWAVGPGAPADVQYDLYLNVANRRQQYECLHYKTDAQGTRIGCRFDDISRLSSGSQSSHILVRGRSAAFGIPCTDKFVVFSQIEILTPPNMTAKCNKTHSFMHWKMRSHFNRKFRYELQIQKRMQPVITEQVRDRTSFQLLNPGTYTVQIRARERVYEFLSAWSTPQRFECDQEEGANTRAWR

B1: D domain of SEQ ID NO: 557 (designed binder)
chain: MGSWDFFKYDLANINEWLEALGGSEAELADFEYGIADFELWLQDYKGKGNPEVEALRKEAAAIRDELQAYRHN
B2: D domain of SEQ ID NO: 549 (designed binder)
chain: MGSWTWFKDNLAWIKEDLEALGGSEAELAWFELEIASFETALQDYKGKGNPEVEALRKEAAAIRDELQAYRHN
B3: D domain of SEQ ID NO: 550 (designed binder)
chain: MGSWTYFKNDLAGIKEDLEALGGSEAELAQFEFEIAEFEWLLQDYKGKGNPEVEALRKEAAAIRDELQAYRHN
B4: D domain of SEQ ID NO: 551 (designed binder)
chain: MGSWTWFKWDLADIKGDLEALGGSEAELAFFEEEIAEFEWRLQDYKGKGNPEVEALRKEAAAIRDELQAYRHN
B5: D domain of SEQ ID NO: 552 (designed binder)
chain: MGSWLYFKEYLADIKSDLEALGGSEAELAWFEYEIADFEEQLQYYKGKGNPEVEALRKEAAAIRDELQAYRHN
B6: D domain of SEQ ID NO: 558 (designed binder)
chain: MGSWYQFKDDLAHIKHLLEALGGSEAELAVFEYIIADFESFLQIYKGKGNPEVEALRKEAAAIRDELQAYRHN
B7: D domain of SEQ ID NO: 535 (designed binder)
chain: MGSWHWFKIVLADIKDGLEALGGSEAELAYFETTIADFEMDLQHYKGKGNPEVEALRKEAAAIRDELQAYRHN
B8: D domain of SEQ ID NO: 536 (designed binder)
chain: MGSWHWFKIVLADIKDGLEALGGSEAELAYFETTIADFEMDLHHYKGKGNPEVEALRKEAAAIRDELQAYRHN
B9: D domain of SEQ ID NO: 546 (designed binder)
chain: MGSWHVFKTELADIKFYLEALGGSEAELAMFELWIAEFEHELQDYKGKGNPEVEALRKEAAAIRDELQAYRHN
B10: D domain of SEQ ID NO: 559 (designed binder)
chain: MGSWAEFKHDLADIKRELEALGGSEAELAWFELSIAFFEDELQHYKGKGNPEVEALRKEAAAIRDELQAYRHN
B11: D domain of SEQ ID NO: 545 (designed binder)
chain: MGSWWLFKEQLALIKYNLEALGGSEAELADFESWIAEFEHQLQEYKGKGNPEVEALRKEAAAIRDELQAYRHN
B12: D domain of SEQ ID NO: 530 (designed binder)
chain: MGSWYYFKDELADIKWDLEALGGSEAELAWFEMLIAQFELDLQWYKGKGNPEVEALRKEAAAIRDELQAYRHN
B13: D domain of SEQ ID NO: 532 (designed binder)
chain: MGSWYQFKHDLADIKYGLEALGGSEAELAWFEDDIADFELDLQYYKGKGNPEVEALRKEAAAIRDELQAYRHN
B14: D domain of SEQ ID NO: 542 (designed binder)
chain: MGSWYQFKTELAWIKDDLEALGGSEAELAWFEWVIADFEDDLQFYKGKGNPEVEALRKEAAAIRDELQAYRHN
B15: D domain of SEQ ID NO: 531 (designed binder)
chain: MGSWMYFKDTLADIKWYLEALGGSEAELAFFEDWIAEFEDDLQVYKGKGNPEVEALRKEAAAIRDELQAYRHN
B16: D domain of SEQ ID NO: 533 (designed binder)
chain: MGSWYVFKDDLADIKYMLEALGGSEAELAWFEWEIANFEFDLQYYKGKGNPEVEALRKEAAAIRDELQAYRHN
B17: D domain of SEQ ID NO: 537 (designed binder)
chain: MGSWFMFKEELADIKDWLEALGGSEAELASFESYIAWFEQDLQWYKGKGNPEVEALRKEAAAIRDELQAYRHN
B18: D domain of SEQ ID NO: 556 (designed binder)
chain: MGSWDEFKEDLAHIKTDLEALGGSEAELALFEDEIADFEMYLQHYKGKGNPEVEALRKEAAAIRDELQAYRHN
B19: D domain of SEQ ID NO: 540 (designed binder)
chain: MGSWDFFKEELAEIKHYLEALGGSEAELAFFEFWIADFEQDLQEYKGKGNPEVEALRKEAAAIRDELQAYRHN
B20: D domain of SEQ ID NO: 541 (designed binder)
chain: MGSWFNFKEELAVIKFQLEALGGSEAELAFFEWVIADFEDDLQEYKGKGNPEVEALRKEAAAIRDELQAYRHN
B21: D domain of SEQ ID NO: 534 (designed binder)
chain: MGSWNFFKYDLADIMAYLEALGGSEAELAFFEDEIANFEHDLQKYKGKGNPEVEALRKEAAAIRDELQAYRHN
B22: D domain of SEQ ID NO: 553 (designed binder)
chain: MGSWHWFKEELAEIKEDLVALGGSEAELAWFEYDIAMFELSLQNYKGKGNPEVEALRKEAAAIRDELQAYRHN
B23: D domain of SEQ ID NO: 554 (designed binder)
chain: MGSWNDFKEELAWIKFDLEALGGSEAELAWFEEDIAMFEQQLQAYKGKGNPEVEALRKEAAAIRDELQAYRHN
B24: D domain of SEQ ID NO: 555 (designed binder)
chain: MGSWWDFKDWLAEIKHDLEALGGSEAELALFESEIADFEFGLQWYKGKGNPEVEALRKEAAAIRDELQAYRHN
B25: D domain of SEQ ID NO: 548 (designed binder)
chain: MGSWGWFKHELAFIKADLEALGGSEAELAWFEEEIAEFEYELQFYKGKGNPEVEALRKEAAAIRDELQAYRHN
B26: D domain of SEQ ID NO: 560 (designed binder)
chain: MGSWVVFKQDLADINHQLEALGGSEAELAWFEWEIADFEWELQHYKGKGNPEVEALRKEAAAIRDELQAYRHN
B27: D domain of SEQ ID NO: 543 (designed binder)
chain: MGSWFEFKDYLADIKWDLEALGGSEAELAIFEHDIAYFEHNLQQYKGKGNPEVEALRKEAAAIRDELQAYRHN
B28: D domain of SEQ ID NO: 544 (designed binder)
chain: MGSWVRFKDFLADIKMDLEALGGSEAELADFEYHIAEFEHNLQEYKGKGNPEVEALRKEAAAIRDELQAYRHN
B29: D domain of SEQ ID NO: 538 (designed binder)
chain: MGSWFMFKQELAWIKEDLEALGGSEAELADFEWDIAEFEWDLQYYKGKGNPEVEALRKEAAAIRDELQAYRHN
B30: D domain of SEQ ID NO: 539 (designed binder)
chain: MGSWQIFKGELAYIKQYLEALGGSEAELAFFEFDIAEFEEDLQYYKGKGNPEVEALRKEAAAIRDELQAYRHN
B31: D domain of SEQ ID NO: 547 (designed binder)
chain: MGSWIWFKDWLADIKDLLEALGGSEAELAEFEYDIALFEDQLQAYKGKGNPEVEALRKEAAAIRDELQAYRHN

Here are results for 31 molecules from patent US20250026849A1 (ARCELLX, published 2025).

In this assay the target is T1, CD123. Nature of the assay: ELISA. The arrangement: unit not given here. For orientation: In an ELISA, binding on a coated surface is turned into a signal by an enzyme label.
Molecule B1 showed an ELISA_avg of 5.5.
For B2, the ELISA_avg stood at 6.9.
To B3 belongs 3.6; to B4, 5.9; to B5, 3.7.
B6 displayed an ELISA_avg of 4.
Take B7: the ELISA_avg turned out to be 4.3.
B8 returned an ELISA_avg of 3.5.
For B9 the value was 5.4; for B10, 3.3.
For B11 the value was 4.1.
Take B12: the ELISA_avg worked out at 4.
For B13 the value was 4.7.
To B14 belongs 6.6; to B15, 3.1.
Consider B16, for which the ELISA_avg came to 3.8.
For B17 the value was 5.7; for B18, 6.3; for B19, 3.7.
For B20 the value was 6.1; for B21, 4.4.
For B22 the value was 3.1.
Turning to B23, the ELISA_avg was 3.8.
For B24 the value was 4.2; for B25, 3.3; for B26, 3.6.
To B27 belongs 3.8; to B28, 5.8.
For B29, the ELISA_avg was determined as 7.2.
To B30 belongs 4.7; to B31, 7.3.
